± gives the standard deviation.

This data set can be described thus: protein stability index of a GFP-peptide fusion (GPS, HEK-293T) (PSI 1-6); higher = more stable. The following applies: c terminus: a fixed tail appended.
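Note: 24-mer peptide tiles fused after GFP, lentivirally expressed, FACS-sorted into six equal bins by GFP/DsRed ratio, decoded by Illumina sequencing, PSI is the read-weighted mean bin number.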

In the case of HGAHKAEKKLFECLTCGKSFRQGM [ZNF263], the protein stability index runs as follows: (treatment: DMSO) 2.67 ± 0.27; (treatment: MLN4924 1 uM, 8 h) 2.78 ± 0.25.

As to HHLDEDEERERIERVRRIHIKRPD [KCTD10], the protein stability index runs as follows: (treatment: DMSO) 5.09 ± 0.34; (treatment: MLN4924 1 uM, 8 h) 5.19 ± 0.076.

For HKHVVQFYHYFEDKENIYILLEYC [PLK2], the protein stability index by setting is: (treatment: DMSO) 2.63 ± 0.43; (treatment: MLN4924 1 uM, 8 h) 2.37 ± 0.71.

For the sequence HKLDLNTREWTQLKPNNLSCDLPE [KLHDC10], the protein stability index (treatment: DMSO) came out at 4.4 ± 0.12 and the protein stability index (treatment: MLN4924 1 uM, 8 h) was 4.41 ± 0.3.

For the sequence HLLGIPHSVLQIRYSGKILKNNET [IQUB], the protein stability index turned out to be 2.77 ± 0.41 (treatment: DMSO) and 2.32 ± 0.38 (treatment: MLN4924 1 uM, 8 h).

Sequence HLNETVKAPDIECVLRCSVLEIEQ [FEM1B] returned a protein stability index (treatment: DMSO) of 3.07 ± 0.49 and a protein stability index (treatment: MLN4924 1 uM, 8 h) of 3.13 ± 0.44.

As to HLYLLRGLPGSGKTTLARQLQHDF [N4BP2L1], the protein stability index reads like this: (treatment: DMSO) 2.35 ± 0.47; (treatment: MLN4924 1 uM, 8 h) 2.27 ± 0.29.

HNSINQSLDESVIYGPGNLSTNNN [SLC2A12]: the protein stability index amounted to 4.68 ± 0.34 (treatment: DMSO) and 4.7 ± 0.055 (treatment: MLN4924 1 uM, 8 h).

HNYNILIATLRVALPSVMRFCCCV [MCOLN1] gave a protein stability index (treatment: DMSO) of 2.83 ± 0.59 and a protein stability index (treatment: MLN4924 1 uM, 8 h) of 2.9 ± 0.48.

HPVLHKEEKQHLERLNKEYQEIFQ [TRIM43] gave a protein stability index (treatment: DMSO) of 3.9 ± 0.47 and a protein stability index (treatment: MLN4924 1 uM, 8 h) of 4.06 ± 0.4.

For the sequence HQKLEREARICRLLKHSNIVRLHD [CAMK2B], the protein stability index is, setting by setting: (treatment: DMSO) 2.58 ± 0.17; (treatment: MLN4924 1 uM, 8 h) 2.66 ± 0.43.

In the case of HSCTCVLYTPSNEHFGIVPLEAMY [ALG2], the protein stability index reads like this: (treatment: DMSO) 2.43 ± 0.38; (treatment: MLN4924 1 uM, 8 h) 2.41 ± 0.22.

Turning to HTPSDTGVSFQAISSMADFWDFAQ [PKD2L1], the protein stability index reads like this: (treatment: DMSO) 2.85 ± 0.36; (treatment: MLN4924 1 uM, 8 h) 3.01 ± 0.35.

For HVEEHFQLLARRMQVDKKRVYLAT [FUT8], the protein stability index by setting is: (treatment: DMSO) 2.32 ± 0.14; (treatment: MLN4924 1 uM, 8 h) 2.29 ± 0.45.

Consider HVLIHNTLQQLQAALRLAPAPALP [SERTAD3], for which the protein stability index was 2.51 ± 0.47 (treatment: DMSO) and 2.55 ± 0.2 (treatment: MLN4924 1 uM, 8 h).

Turning to HVPEGFDPTGPAGLGRPTPGLSQG [EHMT1], the protein stability index came to 4.4 ± 0.27 (treatment: DMSO) and 4.51 ± 0.11 (treatment: MLN4924 1 uM, 8 h).

In the case of HYRASEEEPEYGEEIKGYPGVQAP [CHGB], the protein stability index is, setting by setting: (treatment: DMSO) 4.64 ± 0.23; (treatment: MLN4924 1 uM, 8 h) 5.04 ± 0.36.

In turn, IAVKTLGIGKNVICDRTATPLDAF [GFOD1] displayed a protein stability index (treatment: DMSO) of 2.43 ± 0.14 and a protein stability index (treatment: MLN4924 1 uM, 8 h) of 2.53 ± 0.17.

ICTQKCALNWTDIPVAMEHQPPYI [VPS39] yielded a protein stability index (treatment: DMSO) of 2.25 ± 0.48 and a protein stability index (treatment: MLN4924 1 uM, 8 h) of 2.12 ± 0.11.

For the sequence IDEIISLESSYNDEMLSYLPGGTT [TFE3], the protein stability index worked out at 3.96 ± 0.16 (treatment: DMSO) and 3.88 ± 0.32 (treatment: MLN4924 1 uM, 8 h).

Take IDYKTTTILLDGRRVKLQLWDTSG [RAB40B]: the protein stability index (treatment: DMSO) worked out at 2.42 ± 0.12 and the protein stability index (treatment: MLN4924 1 uM, 8 h) was 2.56 ± 0.24.

Regarding IEAAVQDRLNEQEGVPSVFNPPPS [FAF2], the protein stability index came to 5.06 ± 0.17 (treatment: DMSO) and 5.04 ± 0.15 (treatment: MLN4924 1 uM, 8 h).

IERSKIVSTMRCKTRQKSEKQMEE [PPEF2]: the protein stability index by setting is: (treatment: DMSO) 4.5 ± 0.21; (treatment: MLN4924 1 uM, 8 h) 4.5 ± 0.1.

For the sequence IEVFRRKRKMHLVFEYCDHTLLNE [CDKL4], the protein stability index is, setting by setting: (treatment: DMSO) 2.54 ± 0.98; (treatment: MLN4924 1 uM, 8 h) 2.33 ± 0.14.

As for IFEPPVRNSGIIGGKYLGRTKVVK [EFHC1], the protein stability index reads like this: (treatment: DMSO) 3.42 ± 0.3; (treatment: MLN4924 1 uM, 8 h) 3.62 ± 0.28.

Turning to IFLNGNRERPLNVFCDMETDGGGW [TNXB], the protein stability index reads like this: (treatment: DMSO) 1.91 ± 0.48; (treatment: MLN4924 1 uM, 8 h) 2.67 ± 0.54.

Regarding IFRSKLKNRPSSEGSINKILSGLD [CDC14A], the protein stability index reads like this: (treatment: DMSO) 2.27 ± 0.32; (treatment: MLN4924 1 uM, 8 h) 2.69 ± 0.42.

With IGPFGGFFASGFKRAFKIKDFANT [CDS2], the protein stability index is, setting by setting: (treatment: DMSO) 2.32 ± 0.27; (treatment: MLN4924 1 uM, 8 h) 2.15 ± 0.4.

IGQVHEEFKQNIENVSVEMLLRKF [FCHO1]: the protein stability index by setting is: (treatment: DMSO) 3.05 ± 0.3; (treatment: MLN4924 1 uM, 8 h) 3.32 ± 0.23.

(Values after the supplement of paper PMC10567573.)
